# According to article PMC8326573:
# Molecular target: C. trachomatis PmpD fragment D^269–918, His-tagged (C. trachomatis serovar E) (UniProt O84818)
# Assay: native gel or EMSA; Blue Native-PAGE (Native PAGE Novex 3–12% Bis-Tris), 1 μg of each renatured His-tagged Pmp fragment alone; Coomassie staining and anti-His immunoblot
substance,measurement,value
"C. trachomatis PmpD fragment D^269–918, His-tagged (from UniProt O84818 269-918) (domain or fragment)",stoichiometry N,2
